Key:
hDNMT1 BAH1 domain Y775A = hDNMT1 BAH1 domain Y775A (human, UniProt P26358 728-900, Y775A); assay: ITC
hDNMT1 BAH1 domain D768A = hDNMT1 BAH1 domain D768A (human, UniProt P26358 728-900, D768A); assay: ITC
hDNMT1 BAH1 domain D768A, sequence (P26358 728-900 D768A): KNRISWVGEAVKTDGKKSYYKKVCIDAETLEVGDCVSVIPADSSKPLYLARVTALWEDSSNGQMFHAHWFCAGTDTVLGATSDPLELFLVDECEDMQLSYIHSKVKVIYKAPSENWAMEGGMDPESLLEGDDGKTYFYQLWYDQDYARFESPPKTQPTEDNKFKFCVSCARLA

hDNMT1 BAH1 domain Y775A, sequence (P26358 728-900 Y775A): as the sequence (P26358 728-900 D768A) above, with A41D, Y48A counted along it

In the case of GAKRHRKVLRDNY (trimethyl-lysine at K20) [H4(14–25)K20me3 peptide], the Kd (hDNMT1 BAH1 domain Y775A) is reported as 361 µM and the Kd (hDNMT1 BAH1 domain D768A) is reported as 10 µM.

From PMC8093215 (2021)
